This is an account of results in patent US9969998B2, “Compositions of adenosine deaminase-2 (ADA2), variants thereof and methods of using same” (Halozyme, Inc., priority 2014, dated 2018).

Data set [1] in a line: Kinetic assessment of adenosine deaminase activity (ammonia assay, Michaelis-Menten). Particulars: for kcat: kcat=Vmax/0.0085/60. It counts as biochemical. The essentials:
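Coupled ammonia assay: rHuADA2 WT or variants (1 μg/mL, 17 nM in 2× mix) with adenosine 20 μM–20 mM, α-ketoglutarate, NADPH and GDH, at pH 7.6 or pH 6.5 (PIPES), room temperature. Michaelis-Menten fit gave Km, Vmax, kcat, kcat/Km.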

Data set [2] in a line: Adenosine deaminase (ADA) enzymatic activity assay kit. Format: biochemical. To be noted: purified protein at 5 μg/mL.
Data set [3] in a line: Thermal stability by differential scanning fluorimetry (DSF). Format: physicochemical. Particulars: 0.1-1 mg/mL protein. The procedure, abridged: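 Tm was taken as the midpoint of the unfolding transition. WT and variant rHuADA2, PEGylated or not, at 0.1-1 mg/mL were run in triplicate with ROX thermal shift dye, ramped 25 to 99° C at 0.05° C/s. Fluorescence read at 580 nm excitation and 623 nm emission.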
(In general: In DSF a fluorescence change marks the thermal transition of the protein.)

B1: S265N: ADA2 variant SEQ ID NO:54 (protein)
chain: IDETRAHLLLKEKMMRLGGRLVLNTKEELANERLMTLKIAEMKEAMRTLIFPPSMHFFQAKHLIERSQVFNILRMMPKGAALHLHDIGIVTMDWLVRNVTYRPHCHICFTPRGIMQFRFAHPTPRPSEKCSKWILLEDYRKRVQNVTEFDDSLLRNFTLVTQHPEVIYTNQNVVWSKFETIFFTISGLIHYAPVFRDYVFRSMQEFYEDNVLYMEIRARLLPVYELSGEHHDEEWSVKTYQEVAQKFVETHPEFIGIKIIYNDHRSKDVAVIAESIRMAMGLRIKFPTVVAGFDLVGHEDTGHSLHDYKEALMIPAKDGVKLPYFFHAGETDWQGTSIDRNILDALMLNTTRIGHGFALSKHPAVRTYSWKKDIPIEVCPISNQVLKLVSDLRNHPVATLMATGHPMVISSDDPAMFGAKGLSYDFYEVFMGIGGMKADLRTLKQLAMNSIKYSTLLESEKNTFMEIWKKRWDKFIADVATK
modifications: human ADA2 S262N, mature numbering
Usually Km stands for the concentration of substrate that gives half-maximal velocity. One may read the Vmax as the rate approached at saturating substrate. For orientation: kcat means the number of substrate molecules converted per active site and unit of time at saturation. Turning to B1, the Km turned out to be 1490 µM in data set [1] (pH 6.5); 1490 µM in data set [1] (pH 6.5, [E] = 8.5 nM); 3020 µM in data set [1] (pH 7.6); 3020 µM in data set [1] (pH 7.6, [E] = 8.5 nM). The maximal velocity (Vmax) in data set [1] (pH 6.5, [E] = 8.5 nM) turned out to be 45.79 µM/min; in data set [1] (pH 7.6, [E] = 8.5 nM), 80.49 µM/min. Further, the kcat in data set [1] (pH 6.5, [E] = 8.5 nM) turned out to be 89.78 s⁻¹; in data set [1] (pH 7.6, [E] = 8.5 nM), 157.82 s⁻¹. Also, the “Adenosine deaminase activity mU/ml” value in data set [2] is on record as 164.8 mU/ml. Besides, the “Adenosine deaminase activity ΔA/min” value in data set [2] is given as 71.7 ΔA/min. The “% of WT activity” value in data set [2] (compared to WT-ADA2) came to 211%. Also, in data set [3], the “Tm, melting temperature by DSF” value was determined as 60.8 °C.
